Assay results: patent US20240132624A1 (Ablynx, published 2024)
Substitutions are numbered along the chain they refer to.

B1: T0263018B11 G26D (VHH, name in Kabat numbering)
VHH: EVQLVESGGGVVQPGGSLRLSCAASDFTFSSYAMYWVRQAPGKGLEWVSAISSGGGSTDYADSVKGRFTISRDNSKNTLYLQMNSLRPEDTALYYCAADTLYTSLTWYSYWGQGTLVTVSS
notes: FLAG3-His6 tagged
B2: T0263018B11 S30K (VHH, name in Kabat numbering)
VHH: B1 VHH with D26G, S30K
notes: FLAG3-His6 tagged
B3: T0263018B11 L100aM (VHH, name in Kabat numbering)
VHH: B1 VHH with D26G, L105M
notes: FLAG3-His6 tagged
B4: T0263018B11 S31Q (VHH, name in Kabat numbering)
VHH: B1 VHH with D26G, S31Q
notes: FLAG3-His6 tagged
B5: T0263018B11 G26M (VHH, name in Kabat numbering)
VHH: B1 VHH with D26M
notes: FLAG3-His6 tagged
B6: T0263018B11 S30N (VHH, name in Kabat numbering)
VHH: B1 VHH with D26G, S30N
notes: FLAG3-His6 tagged
B7: T0263018B11 G26N (VHH, name in Kabat numbering)
VHH: B1 VHH with D26N
notes: FLAG3-His6 tagged
B8: T0263018B11 G26Q (VHH, name in Kabat numbering)
VHH: B1 VHH with D26Q
notes: FLAG3-His6 tagged
B9: T0263018B11 S52E (VHH, name in Kabat numbering)
VHH: B1 VHH with D26G, S52E
notes: FLAG3-His6 tagged
B10: T0263018B11 S31T (VHH, name in Kabat numbering)
VHH: B1 VHH with D26G, S31T
notes: FLAG3-His6 tagged
B11: T0263018B11 G26E (VHH, name in Kabat numbering)
VHH: B1 VHH with D26E
notes: FLAG3-His6 tagged
B12: T0263018B11 S31K (VHH, name in Kabat numbering)
VHH: B1 VHH with D26G, S31K
notes: FLAG3-His6 tagged
B13: T0263018B11 S52Q (VHH, name in Kabat numbering)
VHH: B1 VHH with D26G, S52Q
notes: FLAG3-His6 tagged
B14: T0263018B11 S30E (VHH, name in Kabat numbering)
VHH: B1 VHH with D26G, S30E
notes: FLAG3-His6 tagged
B15: T0263018B11 G26S (VHH, name in Kabat numbering)
VHH: B1 VHH with D26S
notes: FLAG3-His6 tagged

The binders below were run against T1, human FcRn/b2M (human, UniProt P61769 21-119, biotinylated) (assay: SPR pH 6.0;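 also: surface plasmon resonance kinetics at 25 °C, diluted periplasmic extracts injected over immobilized ligand surfaces, 120 s association then 600–3600 s dissociation, running buffer containing 150 mM NaCl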).
T1 construct: bought recombinant biotinylated protein (ACRO FCM-H82W4 or Immunitrack ITF01); also called hFcRn; hFcRn/hb2M
T1 sequence (chain, as listed by the source limits assumed, chain 1 of 2): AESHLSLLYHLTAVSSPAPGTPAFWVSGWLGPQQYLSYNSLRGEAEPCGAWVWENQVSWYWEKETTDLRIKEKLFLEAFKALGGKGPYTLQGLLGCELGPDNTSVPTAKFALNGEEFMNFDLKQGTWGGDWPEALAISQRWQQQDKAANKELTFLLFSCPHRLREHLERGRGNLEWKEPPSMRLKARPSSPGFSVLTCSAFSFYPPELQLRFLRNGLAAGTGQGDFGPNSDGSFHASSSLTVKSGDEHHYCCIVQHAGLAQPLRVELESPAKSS
T1 sequence (P61769 21-119 limits assumed, chain 2 of 2): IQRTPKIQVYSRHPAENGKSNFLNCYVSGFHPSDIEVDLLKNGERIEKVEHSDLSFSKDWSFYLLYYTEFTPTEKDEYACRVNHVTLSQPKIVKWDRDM
Protocol: (§1) All kinetic measurements have been performed on ProteOn XPR36 (BioRad Laboratories, Inc.), MASS-2 (Sierra sensors, Gmbh) or SPR-32 (Bruker Corporation). […] The phytip purified periplasmic extracts were diluted 1:10 in running buffer (CPA+150 mM NaCl+0.005% Tw20 at pH 5.5, pH 6.0 or pH 7.4) and injected over the ligand surfaces (association: 120 s at 45 μL/min; dissociation: 600s-3600 s at 45 μL/min). Experiments were carried out at 25° C.
Binder B1 has a koff of 0.0012 s⁻¹.
Work on B2 yielded a koff of 0.0078 s⁻¹.
In the case of B3, the koff is reported as 0.015 s⁻¹.
Binder B4 has a koff of 0.00038 s⁻¹.
Work on B5 yielded a koff of 0.00063 s⁻¹.
Work on B6 yielded a koff of 0.0019 s⁻¹.
Work on B7 yielded a koff of 0.00081 s⁻¹.
B8 showed a koff of 0.00065 s⁻¹.
In the case of B9, the koff is reported as 0.0026 s⁻¹.
For B10, the koff was 0.00052 s⁻¹.
B11 was tested, and the koff was 0.00095 s⁻¹.
B12 was tested, and the koff was 0.0013 s⁻¹.
For B13, the koff was 0.0067 s⁻¹.
In the case of B14, the koff is reported as 0.0019 s⁻¹.
For B15, the koff was 0.00091 s⁻¹.

Each binder was assayed against T2, cyno FcRn/b2M (cyno, UniProt Q8SPV9 24-297; Q8SPW0 21-119, biotinylated) (assay: SPR pH 6.0;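 also: surface plasmon resonance kinetics at 25 °C, diluted periplasmic extracts injected over immobilized ligand surfaces, 120 s association then 600–3600 s dissociation, running buffer containing 150 mM NaCl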).
T2 construct: bought recombinant biotinylated protein (Immunitrack ITF05 or ACRO FCM-C82W5); also called cFcRn; cFcRn/cb2M
T2 sequence (Q8SPV9 24-297 limits assumed, chain 1 of 2): as the sequence (chain, as listed by the source limits assumed, chain 1 of 2) above, with N39D, E44Q, G99S, S189G, S190N, L217M, S269T counted along it
T2 sequence (Q8SPW0 21-119 limits assumed, chain 2 of 2): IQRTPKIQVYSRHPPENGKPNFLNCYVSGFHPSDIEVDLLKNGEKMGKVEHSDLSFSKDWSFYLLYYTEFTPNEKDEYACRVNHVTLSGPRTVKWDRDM
Protocol: as §1
With B1 the koff was 0.00095 s⁻¹.
B2 was tested, and the koff was 0.003 s⁻¹.
B3 was tested, and the koff was 0.013 s⁻¹.
B4 gave a koff of 0.00016 s⁻¹.
In the case of B5, the koff is reported as 7.1e-05 s⁻¹.
With B6 the koff was 0.0013 s⁻¹.
In the case of B7, the koff is reported as 0.00037 s⁻¹.
B8 was tested, and the koff was 1.3e-05 s⁻¹.
With B9 the koff was 0.0023 s⁻¹.
B10 gave a koff of 0.0003 s⁻¹.
With B11 the koff was 0.00081 s⁻¹.
Work on B12 yielded a koff of 0.0011 s⁻¹.
B13 was tested, and the koff was 0.0055 s⁻¹.
B14 gave a koff of 0.0016 s⁻¹.
Work on B15 yielded a koff of 0.00079 s⁻¹.

What follows are binders tested against T1, human FcRn/b2M (assay: SPR pH 7.4;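 also: surface plasmon resonance kinetics, periplasmic extracts diluted 1:10 flowed over immobilized target at 25 °C, 120 s association then 600–3600 s dissociation, buffer with 150 mM NaCl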).
Protocol: as §1
B1 showed a koff of 0.063 s⁻¹.
In the case of B2, the koff is reported as 0.069 s⁻¹.
Binder B3 has a koff of 0.62 s⁻¹.
For B4, the koff was 0.017 s⁻¹.
In the case of B5, the koff is reported as 0.033 s⁻¹.
Work on B6 yielded a koff of 0.082 s⁻¹.
B7 showed a koff of 0.042 s⁻¹.
For B8, the koff was 0.034 s⁻¹.
Binder B9 has a koff of 0.042 s⁻¹.
In the case of B10, the koff is reported as 0.024 s⁻¹.
In the case of B11, the koff is reported as 0.042 s⁻¹.
With B12 the koff was 0.048 s⁻¹.
In the case of B13, the koff is reported as 0.15 s⁻¹.
B14 showed a koff of 0.071 s⁻¹.
With B15 the koff was 0.047 s⁻¹.

The binders below were run against T2, cyno FcRn/b2M (assay: SPR pH 7.4;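 also: surface plasmon resonance kinetics, periplasmic extracts diluted 1:10 flowed over immobilized target at 25 °C, 120 s association then 600–3600 s dissociation, buffer with 150 mM NaCl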).
Protocol: as §1
B1 showed a koff of 0.058 s⁻¹.
B2 showed a koff of 0.055 s⁻¹.
B3 was tested, and the koff was 0.51 s⁻¹.
For B4, the koff was 0.013 s⁻¹.
For B5, the koff was 0.025 s⁻¹.
With B6 the koff was 0.061 s⁻¹.
With B7 the koff was 0.032 s⁻¹.
In the case of B8, the koff is reported as 0.026 s⁻¹.
In the case of B9, the koff is reported as 0.047 s⁻¹.
B10 gave a koff of 0.018 s⁻¹.
Work on B11 yielded a koff of 0.05 s⁻¹.
Binder B12 has a koff of 0.044 s⁻¹.
B13 was tested, and the koff was 0.14 s⁻¹.
For B14, the koff was 0.073 s⁻¹.
In the case of B15, the koff is reported as 0.053 s⁻¹.

Each binder was assayed against T1, human FcRn/b2M (assay: SPR off-rate; pH 7.4 vs pH 6.0;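 also: surface plasmon resonance with diluted periplasmic extracts flowed over ligand surfaces, 120 s association and 600–3600 s dissociation at 25 °C, running buffer containing 150 mM NaCl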).
Protocol: as §1
In the case of B1, the “kd ratio pH 7.4/6.0” value is reported as 53.
In the case of B2, the “kd ratio pH 7.4/6.0” value is reported as 9.
With B3 the “kd ratio pH 7.4/6.0” value was 42.
With B4 the “kd ratio pH 7.4/6.0” value was 43.
For B5, the “kd ratio pH 7.4/6.0” value was 52.
For B6, the “kd ratio pH 7.4/6.0” value was 42.
B7 was tested, and the “kd ratio pH 7.4/6.0” value was 53.
With B8 the “kd ratio pH 7.4/6.0” value was 53.
For B9, the “kd ratio pH 7.4/6.0” value was 16.
With B10 the “kd ratio pH 7.4/6.0” value was 46.
For B11, the “kd ratio pH 7.4/6.0” value was 44.
With B12 the “kd ratio pH 7.4/6.0” value was 37.
B13 was tested, and the “kd ratio pH 7.4/6.0” value was 22.
B14 was tested, and the “kd ratio pH 7.4/6.0” value was 37.
With B15 the “kd ratio pH 7.4/6.0” value was 52.

These binders were tested against T2, cyno FcRn/b2M (assay: SPR off-rate; pH 7.4 vs pH 6.0;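 also: surface plasmon resonance with diluted periplasmic extracts flowed over ligand surfaces, 120 s association and 600–3600 s dissociation at 25 °C, running buffer containing 150 mM NaCl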).
Protocol: as §1
With B1 the “kd ratio pH 7.4/6.0” value was 61.
With B2 the “kd ratio pH 7.4/6.0” value was 18.
In the case of B3, the “kd ratio pH 7.4/6.0” value is reported as 41.
For B4, the “kd ratio pH 7.4/6.0” value was 79.
With B5 the “kd ratio pH 7.4/6.0” value was 349.
With B6 the “kd ratio pH 7.4/6.0” value was 46.
In the case of B7, the “kd ratio pH 7.4/6.0” value is reported as 86.
In the case of B8, the “kd ratio pH 7.4/6.0” value is reported as 2010.
With B9 the “kd ratio pH 7.4/6.0” value was 20.
In the case of B10, the “kd ratio pH 7.4/6.0” value is reported as 60.
B11 was tested, and the “kd ratio pH 7.4/6.0” value was 62.
In the case of B12, the “kd ratio pH 7.4/6.0” value is reported as 40.
In the case of B13, the “kd ratio pH 7.4/6.0” value is reported as 26.
With B14 the “kd ratio pH 7.4/6.0” value was 46.
In the case of B15, the “kd ratio pH 7.4/6.0” value is reported as 67.
